According to PMC3764422, “A model of yeast glycolysis based on a consistent kinetic characterisation of all its enzymes” (Febs Letters, 2013):

B1: Tdh2p (Saccharomyces cerevisiae S288C) (protein)
chain: VRVAINGFGRIGRLVMRIALQRKNVEVVALNDPFISNDYSAYMFKYDSTHGRYAGEVSHDDKHIIVDGHKIATFQERDPANLPWASLNIDIAIDSTGVFKELDTAQKHIDAGAKKVVITAPSSTAPMFVMGVNEEKYTSDLKIVSNASCTTNCLAPLAKVINDAFGIEEGLMTTVHSMTATQKTVDGPSHKDWRGGRTASGNIIPSSTGAAKAVGKVLPELQGKLTGMAFRVPTVDVSVVDLTVKLNKETTYDEIKKVVKAAAEGKLKGVLGYTEDAVVSSDFLGDSNSSIFDAAAGIQLSPKFVKLVSWYDNEYGYSTRVVDLVEHVAKA
notes: tagged full-length ORF, expressed in and purified from S. cerevisiae
B2: Gpm1p (Saccharomyces cerevisiae S288C) (protein)
chain: PKLVLVRHGQSEWNEKNLFTGWVDVKLSAKGQQEAARAGELLKEKKVYPDVLYTSKLSRAIQTANIALEKADRLWIPVNRSWRLNERHYGDLQGKDKAETLKKFGEEKFNTYRRSFDVPPPPIDASSPFSQKGDERYKYVDPNVLPETESLALVIDRLLPYWQDVIAKDLLSGKTVMIAAHGNSLRGLVKHLEGISDADIAKLNIPTGIPLVFELDENLKPSKPSYYLDPEAAAAGAAAVANQGKK
notes: as for B1
B3: Pdc1p (Saccharomyces cerevisiae S288C) (protein)
chain: SEITLGKYLFERLKQVNVNTVFGLPGDFNLSLLDKIYEVEGMRWAGNANELNAAYAADGYARIKGMSCIITTFGVGELSALNGIAGSYAEHVGVLHVVGVPSISAQAKQLLLHHTLGNGDFTVFHRMSANISETTAMITDIATAPAEIDRCIRTTYVTQRPVYLGLPANLVDLNVPAKLLQTPIDMSLKPNDAESEKEVIDTILALVKDAKNPVILADACCSRHDVKAETKKLIDLTQFPAFVTPMGKGSIDEQHPRYGGVYVGTLSKPEVKEAVESADLILSVGALLSDFNTGSFSYSYKTKNIVEFHSDHMKIRNATFPGVQMKFVLQKLLTTIADAAKGYKPVAVPARTPANAAVPASTPLKQEWMWNQLGNFLQEGDVVIAETGTSAFGINQTTFPNNTYGISQVLWGSIGFTTGATLGAAFAAEEIDPKKRVILFIGDGSLQLTVQEISTMIRWGLKPYLFVLNNDGYTIEKLIHGPKAQYNEIQGWDHLSLLPTFGAKDYETHRVATTGEWDKLTQDKSFNDNSKIRMIEIMLPVFDAPQNLVEQAKLTAATNAKQ
notes: tagged full-length ORF, expressed in and purified from S. cerevisiae, assayed freshly purified
B4: Tdh3p (Saccharomyces cerevisiae S288C) (protein)
chain: VRVAINGFGRIGRLVMRIALSRPNVEVVALNDPFITNDYAAYMFKYDSTHGRYAGEVSHDDKHIIVDGKKIATYQERDPANLPWGSSNVDIAIDSTGVFKELDTAQKHIDAGAKKVVITAPSSTAPMFVMGVNEEKYTSDLKIVSNASCTTNCLAPLAKVINDAFGIEEGLMTTVHSLTATQKTVDGPSHKDWRGGRTASGNIIPSSTGAAKAVGKVLPELQGKLTGMAFRVPTVDVSVVDLTVKLNKETTYDEIKKVVKAAAEGKLKGVLGYTEDAVVSSDFLGDSHSSIFDASAGIQLSPKFVKLVSWYDNEYGYSTRVVDLVEHVAKA
notes: as for B1
B5: Eno2p (Saccharomyces cerevisiae S288C) (protein)
chain: MAVSKVYARSVYDSRGNPTVEVELTTEKGVFRSIVPSGASTGVHEALEMRDEDKSKWMGKGVMNAVNNVNNVIAAAFVKANLDVKDQKAVDDFLLSLDGTANKSKLGANAILGVSMAAARAAAAEKNVPLYQHLADLSKSKTSPYVLPVPFLNVLNGGSHAGGALALQEFMIAPTGAKTFAEAMRIGSEVYHNLKSLTKKRYGASAGNVGDEGGVAPNIQTAEEALDLIVDAIKAAGHDGKVKIGLDCASSEFFKDGKYDLDFKNPESDKSKWLTGVELADMYHSLMKRYPIVSIEDPFAEDDWEAWSHFFKTAGIQIVADDLTVTNPARIATAIEKKAADALLLKVNQIGTLSESIKAAQDSFAANWGVMVSHRSGETEDTFIADLVVGLRTGQIKTGAPARSERLAKLNQLLRIEEELGDKAVYAGENFHHGDKL
notes: N-terminally tagged full-length ORF, expressed in and purified from S. cerevisiae, assayed fresh
B6: Pdc6p (Saccharomyces cerevisiae S288C) (protein)
chain: SEITLGKYLFERLKQVNVNTIFGLPGDFNLSLLDKIYEVDGLRWAGNANELNAAYAADGYARIKGLSVLVTTFGVGELSALNGIAGSYAEHVGVLHVVGVPSISAQAKQLLLHHTLGNGDFTVFHRMSANISETTSMITDIATAPSEIDRLIRTTFITQRPSYLGLPANLVDLKVPGSLLEKPIDLSLKPNDPEAEKEVIDTVLELIQNSKNPVILSDACASRHNVKKETQKLIDLTQFPAFVTPLGKGSIDEQHPRYGGVYVGTLSKQDVKQAVESADLILSVGALLSDFNTGSFSYSYKTKNVVEFHSDYVKVKNATFLGVQMKFALQNLLKVIPDVVKGYKSVPVPTKTPANKGVPASTPLKQEWLWNELSKFLQEGDVIISETGTSAFGINQTIFPKDAYGISQVLWGSIGFTTGATLGAAFAAEEIDPNKRVILFIGDGSLQLTVQEISTMIRWGLKPYLFVLNNDGYTIEKLIHGPHAEYNEIQTWDHLALLPAFGAKKYENHKIATTGEWDALTTDSEFQKNSVIRLIELKLPVFDAPESLIKQAQLTAATNAKQ
notes: as for B3
B7: Pdc5p (Saccharomyces cerevisiae S288C) (protein)
chain: MSEITLGKYLFERLSQVNCNTVFGLPGDFNLSLLDKLYEVKGMRWAGNANELNAAYAADGYARIKGMSCIITTFGVGELSALNGIAGSYAEHVGVLHVVGVPSISSQAKQLLLHHTLGNGDFTVFHRMSANISETTAMITDIANAPAEIDRCIRTTYTTQRPVYLGLPANLVDLNVPAKLLETPIDLSLKPNDAEAEAEVVRTVVELIKDAKNPVILADACASRHDVKAETKKLMDLTQFPVYVTPMGKGAIDEQHPRYGGVYVGTLSRPEVKKAVESADLILSIGALLSDFNTGSFSYSYKTKNIVEFHSDHIKIRNATFPGVQMKFALQKLLDAIPEVVKDYKPVAVPARVPITKSTPANTPMKQEWMWNHLGNFLREGDIVIAETGTSAFGINQTTFPTDVYAIVQVLWGSIGFTVGALLGATMAAEELDPKKRVILFIGDGSLQLTVQEISTMIRWGLKPYIFVLNNNGYTIEKLIHGPHAEYNEIQGWDHLALLPTFGARNYETHRVATTGEWEKLTQDKDFQDNSKIRMIEVMLPVFDAPQNLVKQAQLTAATNAKQ
notes: as for B3
B8: Tdh1p (Saccharomyces cerevisiae S288C) (protein)
chain: MIRIAINGFGRIGRLVLRLALQRKDIEVVAVNDPFISNDYAAYMVKYDSTHGRYKGTVSHDDKHIIIDGVKIATYQERDPANLPWGSLKIDVAVDSTGVFKELDTAQKHIDAGAKKVVITAPSSSAPMFVVGVNHTKYTPDKKIVSNASCTTNCLAPLAKVINDAFGIEEGLMTTVHSMTATQKTVDGPSHKDWRGGRTASGNIIPSSTGAAKAVGKVLPELQGKLTGMAFRVPTVDVSVVDLTVKLEKEATYDQIKKAVKAAAEGPMKGVLGYTEDAVVSSDFLGDTHASIFDASAGIQLSPKFVKLISWYDNEYGYSARVVDLIEYVAKA
notes: as for B1
B9: Pgk1p (Saccharomyces cerevisiae S288C) (protein)
chain: SLSSKLSVQDLDLKDKRVFIRVDFNVPLDGKKITSNQRIVAALPTIKYVLEHHPRYVVLASHLGRPNGERNEKYSLAPVAKELQSLLGKDVTFLNDCVGPEVEAAVKASAPGSVILLENLRYHIEEEGSRKVDGQKVKASKEDVQKFRHELSSLADVYINDAFGTAHRAHSSMVGFDLPQRAAGFLLEKELKYFGKALENPTRPFLAILGGAKVADKIQLIDNLLDKVDSIIIGGGMAFTFKKVLENTEIGDSIFDKAGAEIVPKLMEKAKAKGVEVVLPVDFIIADAFSADANTKTVTDKEGIPAGWQGLDNGPESRKLFAATVAKAKTIVWNGPPGVFEFEKFAAGTKALLDEVVKSSAAGNTVIIGGGDTATVAKKYGVTDKISHVSTGGGASLELLEGKELPGVAFLSEKK
notes: as for B1

Key:
Assay in all cases: purified protein
Format in all cases: biochemical, Saccharomyces cerevisiae
[1] = substrate: O=C[C@H](O)COP(=O)(O)O; settings: standardised reaction buffer, 30 °C
[2] = substrate: O=C(O)[C@@H](CO)OP(=O)(O)O; settings: standardised reaction buffer, 30 °C
[3] = substrate: CC(=O)C(=O)O; settings: standardised reaction buffer, 30 °C
[4] = substrate: O=C(O)[C@H](O)COP(=O)(O)O; settings: standardised reaction buffer, 30 °C, direction with ATP as co-substrate

Protein | Km [1] | kcat [1] [s⁻¹] | Km [3] | kcat [3] [s⁻¹] | further results
B1 | 0.77 mM | 8.63 |  |  | 
B2 |  |  |  |  | Km ([2]; reverse reaction (P2G to P3G)): 1410 µM; kcat ([2]; reverse reaction (P2G to P3G)): 400 s⁻¹
B3 |  |  | 8.5 (SEM 10%) mM | 12.1 | 
B4 | 0.423 (SEM 9.2%) mM | 18.2 |  |  | 
B5 |  |  |  |  | Km [2]: 104 µM; kcat [2]: 19.9 s⁻¹
B6 |  |  | 2.92 mM | 9.21 | 
B7 |  |  | 7.08 (SEM 5.7%) mM | 10.3 | 
B8 | 0.495 (SEM 7.5%) mM | 19.1 |  |  | 
B9 |  |  |  |  | Km [4]: 4580 µM; kcat [4]: 58.6 s⁻¹
